In one data set the target is T1, UvrB wild type (Bacillus subtilis, UniProt P37954 1-661).
T1 sequence: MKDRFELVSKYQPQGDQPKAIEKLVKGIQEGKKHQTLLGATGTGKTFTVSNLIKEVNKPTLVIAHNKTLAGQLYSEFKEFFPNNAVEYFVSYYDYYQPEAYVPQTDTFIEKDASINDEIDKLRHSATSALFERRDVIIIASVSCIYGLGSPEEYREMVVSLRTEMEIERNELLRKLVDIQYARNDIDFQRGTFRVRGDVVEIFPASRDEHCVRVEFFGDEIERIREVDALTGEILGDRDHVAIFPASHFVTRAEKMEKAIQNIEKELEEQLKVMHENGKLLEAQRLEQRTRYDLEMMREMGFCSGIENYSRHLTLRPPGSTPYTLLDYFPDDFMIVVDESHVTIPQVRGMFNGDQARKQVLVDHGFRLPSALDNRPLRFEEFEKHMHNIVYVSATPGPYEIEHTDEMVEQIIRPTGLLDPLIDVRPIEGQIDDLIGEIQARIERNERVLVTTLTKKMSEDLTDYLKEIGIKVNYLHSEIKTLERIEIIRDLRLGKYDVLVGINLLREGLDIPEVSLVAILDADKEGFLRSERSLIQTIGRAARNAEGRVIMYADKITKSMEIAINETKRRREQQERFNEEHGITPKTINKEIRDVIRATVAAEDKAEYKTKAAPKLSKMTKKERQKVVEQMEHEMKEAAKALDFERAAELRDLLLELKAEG
The data set is described as follows: X-ray crystallography.

The data set “crystal structure” deals with the molecule itself. The data set is described as follows: crystal structure.
The next data set deals with Bacillus subtilis UvrA (Bacillus subtilis, UniProt O34863 1-957). The data set is described as follows: native gel or EMSA.
Sequence of Bacillus subtilis UvrA (O34863 whole entry): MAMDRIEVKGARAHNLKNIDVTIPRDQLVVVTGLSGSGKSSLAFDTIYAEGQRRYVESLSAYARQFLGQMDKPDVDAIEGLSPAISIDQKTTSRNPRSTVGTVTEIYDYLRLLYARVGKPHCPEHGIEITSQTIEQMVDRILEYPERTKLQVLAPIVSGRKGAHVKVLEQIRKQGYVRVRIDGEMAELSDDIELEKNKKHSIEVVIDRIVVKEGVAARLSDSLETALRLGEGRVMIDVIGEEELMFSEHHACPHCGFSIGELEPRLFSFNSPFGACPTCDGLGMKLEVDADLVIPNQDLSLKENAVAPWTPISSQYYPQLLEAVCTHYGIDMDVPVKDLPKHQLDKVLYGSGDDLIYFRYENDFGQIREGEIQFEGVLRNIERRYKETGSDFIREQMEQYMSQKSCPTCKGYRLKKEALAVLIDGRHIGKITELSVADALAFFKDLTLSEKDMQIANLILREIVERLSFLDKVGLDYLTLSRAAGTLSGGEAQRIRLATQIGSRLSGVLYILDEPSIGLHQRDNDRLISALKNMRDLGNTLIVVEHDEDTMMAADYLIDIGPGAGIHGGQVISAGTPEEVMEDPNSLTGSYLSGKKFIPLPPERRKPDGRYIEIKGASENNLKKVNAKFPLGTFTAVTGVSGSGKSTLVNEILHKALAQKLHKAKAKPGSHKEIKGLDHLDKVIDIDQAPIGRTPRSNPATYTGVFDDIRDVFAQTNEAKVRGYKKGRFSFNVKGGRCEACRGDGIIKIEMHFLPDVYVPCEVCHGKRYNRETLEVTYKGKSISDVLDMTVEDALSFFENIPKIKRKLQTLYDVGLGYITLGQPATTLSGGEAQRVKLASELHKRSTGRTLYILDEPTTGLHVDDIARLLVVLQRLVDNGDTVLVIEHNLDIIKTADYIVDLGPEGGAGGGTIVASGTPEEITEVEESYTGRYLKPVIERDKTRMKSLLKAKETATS
The data set “cross-linking” concerns the molecule itself. The data set is described as follows: cross-linking.
The data set “DEER” concerns the molecule itself. The data set is described as follows: DEER.

In general, stoichiometry N refers to the number of molecules, sites or subunits per partner or assembly.

For the molecule TACTGTTT (ssDNA, T-fluorescein at position 6) [TACTG(TF6)TT 8-mer], the binding result in the data set with UvrB wild type is given as “binds”.

B1: Bacillus subtilis UvrB (wild type) (natural protein)
chain: MKDRFELVSKYQPQGDQPKAIEKLVKGIQEGKKHQTLLGATGTGKTFTVSNLIKEVNKPTLVIAHNKTLAGQLYSEFKEFFPNNAVEYFVSYYDYYQPEAYVPQTDTFIEKDASINDEIDKLRHSATSALFERRDVIIIASVSCIYGLGSPEEYREMVVSLRTEMEIERNELLRKLVDIQYARNDIDFQRGTFRVRGDVVEIFPASRDEHCVRVEFFGDEIERIREVDALTGEILGDRDHVAIFPASHFVTRAEKMEKAIQNIEKELEEQLKVMHENGKLLEAQRLEQRTRYDLEMMREMGFCSGIENYSRHLTLRPPGSTPYTLLDYFPDDFMIVVDESHVTIPQVRGMFNGDQARKQVLVDHGFRLPSALDNRPLRFEEFEKHMHNIVYVSATPGPYEIEHTDEMVEQIIRPTGLLDPLIDVRPIEGQIDDLIGEIQARIERNERVLVTTLTKKMSEDLTDYLKEIGIKVNYLHSEIKTLERIEIIRDLRLGKYDVLVGINLLREGLDIPEVSLVAILDADKEGFLRSERSLIQTIGRAARNAEGRVIMYADKITKSMEIAINETKRRREQQERFNEEHGITPKTINKEIRDVIRATVAAEDKAEYKTKAAPKLSKMTKKERQKVVEQMEHEMKEAAKALDFERAAELRDLLLELKAEG
Take B1: the “stoichiometry N” value in “crystal structure” was 2. Besides, in the data set with Bacillus subtilis UvrA, the binding result was “binds”.

B2: Bacillus subtilis UvrB T481C mutant (natural protein)
chain: MKDRFELVSKYQPQGDQPKAIEKLVKGIQEGKKHQTLLGATGTGKTFTVSNLIKEVNKPTLVIAHNKTLAGQLYSEFKEFFPNNAVEYFVSYYDYYQPEAYVPQTDTFIEKDASINDEIDKLRHSATSALFERRDVIIIASVSCIYGLGSPEEYREMVVSLRTEMEIERNELLRKLVDIQYARNDIDFQRGTFRVRGDVVEIFPASRDEHCVRVEFFGDEIERIREVDALTGEILGDRDHVAIFPASHFVTRAEKMEKAIQNIEKELEEQLKVMHENGKLLEAQRLEQRTRYDLEMMREMGFCSGIENYSRHLTLRPPGSTPYTLLDYFPDDFMIVVDESHVTIPQVRGMFNGDQARKQVLVDHGFRLPSALDNRPLRFEEFEKHMHNIVYVSATPGPYEIEHTDEMVEQIIRPTGLLDPLIDVRPIEGQIDDLIGEIQARIERNERVLVTTLTKKMSEDLTDYLKEIGIKVNYLHSEIKCLERIEIIRDLRLGKYDVLVGINLLREGLDIPEVSLVAILDADKEGFLRSERSLIQTIGRAARNAEGRVIMYADKITKSMEIAINETKRRREQQERFNEEHGITPKTINKEIRDVIRATVAAEDKAEYKTKAAPKLSKMTKKERQKVVEQMEHEMKEAAKALDFERAAELRDLLLELKAEG
B2: in the data set “cross-linking”, the binding result is on record as “binds”.

B3: Bacillus subtilis UvrB T481C mutant, spin labeled with PROXYL (natural protein)
chain: MKDRFELVSKYQPQGDQPKAIEKLVKGIQEGKKHQTLLGATGTGKTFTVSNLIKEVNKPTLVIAHNKTLAGQLYSEFKEFFPNNAVEYFVSYYDYYQPEAYVPQTDTFIEKDASINDEIDKLRHSATSALFERRDVIIIASVSCIYGLGSPEEYREMVVSLRTEMEIERNELLRKLVDIQYARNDIDFQRGTFRVRGDVVEIFPASRDEHCVRVEFFGDEIERIREVDALTGEILGDRDHVAIFPASHFVTRAEKMEKAIQNIEKELEEQLKVMHENGKLLEAQRLEQRTRYDLEMMREMGFCSGIENYSRHLTLRPPGSTPYTLLDYFPDDFMIVVDESHVTIPQVRGMFNGDQARKQVLVDHGFRLPSALDNRPLRFEEFEKHMHNIVYVSATPGPYEIEHTDEMVEQIIRPTGLLDPLIDVRPIEGQIDDLIGEIQARIERNERVLVTTLTKKMSEDLTDYLKEIGIKVNYLHSEIKCLERIEIIRDLRLGKYDVLVGINLLREGLDIPEVSLVAILDADKEGFLRSERSLIQTIGRAARNAEGRVIMYADKITKSMEIAINETKRRREQQERFNEEHGITPKTINKEIRDVIRATVAAEDKAEYKTKAAPKLSKMTKKERQKVVEQMEHEMKEAAKALDFERAAELRDLLLELKAEG
modifications: nitroxide spin label 3-(2-iodoacetamido)-proxyl (PROXYL) on C481
As to B3, the binding result in the data set “DEER” was “binds”.

These data come from paper PMC3458569 (Nucleic Acids Research, 2012).
